OD450 data for 3 molecules are collected here from US20250250357A1 (NANJING ZAIMING PHARMACEUTICAL, published 2025).

Sequences and labels used below:
B1: S009-F7.67.12 (antibody, human IgG1, kappa, V domains shown)
VH: QVQLQQPGTELVKPGASVRLSCRASGYSFSSYWMHWVKQRPGQGLEWLGNINPTTGDINYNEKFRNRATLAVDKSSTTAYLQLTSLTSEDSAVYFCVRHDGFLWGQGTTLTVSS
VL: DIQMTQSPASLSASVGETVTITCRASENIYSYLAWYQQKQGKSPQLLVYYAKTLAEGVSSRFSGSGSGTQFSLKINSLQPEDFGTYYCQHQFGTPRTFGGGTKLEIRR
notes: Human-murine chimeric antibody, human IgG1 heavy and kappa light constant regions
B2: S009-F7.66.12 (antibody, human IgG1, kappa, V domains shown)
VH: QIPLQQSGPELVKPGASVRISCKASDYAFSSSWMNWVKQRPEKGLEWIGRIFVESGNTHYNDKFNGKATLTADKSSRTAYIQLSSLTSEDSAVYFCTRENIFYHGHSSWFAYWGQGTLVTVSA
VL: DIVLTQSPASLVVSLGQRATISCRAGESVDDFGISYVHWYQQKPGQPPKLLIYRAANLESGIPARFSGSGSRTDFTLTINPVETDDVAIYYCQQNNKDPFTFGSGTKLEIKR
notes: as for B1
B3: Tab106 (YP218, hIgG1) (antibody, V domains shown)
VH: QQQLEESGGGLVKPEGSLTLTCKASGFDLGFYFYACWVRQAPGKGLEWIACIYTAGSGSTYYASWAKGRFTISKASSTTVTLQMTSLAAADTATYFCARSTANTRSTYYLNLWGPGTLVTVSS
VL: DVVMTQTPASVSEPVGGTVTIKCQASQRISSYLSWYQQKPGQRPKLLIFGASTLASGVPSRFKGSGSGTEYTLTISDLECADAATYYCQSYAYFDSNNWHAFGGGTEVVVRT
notes: Control antibody; YP218 VH and VL recombined into human IgG1 CH and CL expression vectors; also called YP218 human IgG1 antibody

T1 sequence (Q13421 other isoform, or with tags, fused parts or gaps): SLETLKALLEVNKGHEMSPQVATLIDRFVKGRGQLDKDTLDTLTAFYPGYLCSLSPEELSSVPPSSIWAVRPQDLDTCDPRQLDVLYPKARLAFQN

One assay has as its target T1, human MSLN-R2-his protein (human, UniProt Q13421 391-486).
T1 construct: it is put last here; also called human MSLN-R2 protein; hMSLN-R2-his; not shown: His tag
The assay is described as follows: ELISA on coated antigen, antibody 2 nM. (In general: ELISA stands for enzyme-linked immunosorbent assay.)
Molecule B1 came in with an OD450 of 0.06 OD.
B2 registered an OD450 of 0.06 OD.
Still for that read-out and setting: next, B3: 1.42 OD.

In a further assay the target is T2, human MSLN-R3-his protein (human, UniProt Q13421 487-598).
T2 construct: it is put last here; also called human MSLN-R3 protein; hMSLN-R3-his; not shown: His tag
T2 sequence (Q13421 495-606): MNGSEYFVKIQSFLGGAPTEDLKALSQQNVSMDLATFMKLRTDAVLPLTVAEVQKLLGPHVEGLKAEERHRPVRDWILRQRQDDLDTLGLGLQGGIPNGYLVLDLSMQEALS
The assay is described as follows: ELISA on coated antigen, antibody 2 nM.
For B1, the OD450 amounted to 2.45 OD.
For B2, the OD450 was found to be 2.25 OD.
As to B3, the OD450 was 2.33 OD.

The next assay deals with T1, human MSLN-R2-his protein. The assay is described as follows: ELISA on coated antigen, antibody 20 nM.
Procedure: (§1) The plate was sealed with a plastic film and incubated at 4° C. overnight. The next day, the plate was washed twice with PBST, and a blocking buffer [PBS+2% (w/w) BSA] was added for blocking at room temperature for 2 h. The blocking buffer was discarded, and a chimeric antibody or negative control antibody serially diluted from 100 nM was added at 50 μL/well. After incubation at 37° C. for 2 h, the plate was washed 3 times with PBST. […] After incubation at 37° C. for 2 h, the plate was washed 5 times with PBST. A TMB substrate was added at 50 μL/well for incubation at room temperature for 5-10 min, and then a stop solution (1.0 N HCl) was added at 50 μL/well.
Molecule B1 came in with an OD450 of 0.07 OD.
Same read-out and setting: as for B2, the figure is 0.09 OD; as for B3, 2.42 OD.

Another assay has as its target T2, human MSLN-R3-his protein. The assay is described as follows: ELISA on coated antigen, antibody 20 nM.
Procedure: as §1
In turn, B1 had an OD450 of 2.49 OD.
On the same count and under the same terms, as for B2, the figure is 2.37 OD.
B3: the OD450 amounted to 2.26 OD.

For the next assay, the target named is T1, human MSLN-R2-his protein. Kind of assay: ELISA on coated antigen, antibody 0.2 nM.
Procedure: as §1
B1 displayed an OD450 of 0.06 OD.
Still for that read-out and setting: as for B2, the figure is 0.05 OD; as for B3, 0.47 OD.

The target in a further assay is T1, human MSLN-R2-his protein. The assay is described as follows: ELISA on coated antigen, antibody 200 nM.
Procedure: as §1
In turn, B1 registered an OD450 of 0.1 OD.
Turning to B2, the OD450 turned out to be 0.28 OD.
Regarding B3, the OD450 was 2.54 OD.

The next assay has as its target T2, human MSLN-R3-his protein. The assay is described as follows: ELISA on coated antigen, antibody 0.2 nM.
Molecule B1 came in with an OD450 of 1.93 OD.
The molecule B2 came in with an OD450 of 1.95 OD.
B3 had an OD450 of 1.9 OD.

In another assay the target is T2, human MSLN-R3-his protein. The assay is described as follows: ELISA on coated antigen, antibody 200 nM.
Procedure: as §1
B1 came in with an OD450 of 2.75 OD.
On the same count and under the same terms, next, B2: 2.6 OD; B3: 2.12 OD.

Another assay deals with T1, human MSLN-R2-his protein. The assay is described as follows: ELISA on coated antigen, antibody 0.02 nM.
Procedure: as §1
For the molecule B1, the OD450 came to 0.05 OD.
The molecule B2 showed an OD450 of 0.05 OD.
On to B3, for which the OD450 came to 0.17 OD.

Another assay has as its target T2, human MSLN-R3-his protein. The assay is described as follows: ELISA on coated antigen, antibody 0.02 nM.
Turning to B1, the OD450 stood at 0.69 OD.
B2 gave an OD450 of 0.04 OD.
In the case of B3, the OD450 stood at 0.97 OD.

The target in another assay is T1, human MSLN-R2-his protein. Kind of assay: ELISA on coated antigen, antibody 0.002 nM.
Procedure: as §1
As to B1, the OD450 came out at 0.05 OD.
In turn, B2 yielded an OD450 of 0.05 OD.
The molecule B3 had an OD450 of 0.11 OD.

Another assay concerns the target T2, human MSLN-R3-his protein. The assay is described as follows: ELISA on coated antigen, antibody 0.002 nM.
Procedure: as §1
In the case of B1, the OD450 stood at 0.24 OD.
The molecule B2 gave an OD450 of 0.23 OD.
The same measure, in the same setting: next, B3: 0.65 OD.

Another assay addresses T1, human MSLN-R2-his protein. Kind of assay: ELISA on coated antigen, antibody 0.0002 nM.
Procedure: as §1
B1: the OD450 is 0.05 OD.
The same measure, in the same setting: as for B2, the figure is 0.27 OD; as for B3, 0.12 OD.

For the next assay, the target named is T2, human MSLN-R3-his protein. The assay is described as follows: ELISA on coated antigen, antibody 0.0002 nM.
On to B1, for which the OD450 is 0.11 OD.
For the molecule B2, the OD450 was found to be 0.14 OD.
For the molecule B3, the OD450 is 0.35 OD.

Another assay deals with T1, human MSLN-R2-his protein. The assay is described as follows: ELISA on coated antigen, no antibody (blank, column 'none').
Procedure: as §1
Take B1: the OD450 amounted to 0.06 OD.
B2 registered an OD450 of 0.07 OD.
B3: the OD450 came to 0.07 OD.

The target of the next assay is T2, human MSLN-R3-his protein. Described as above.
Procedure: as §1
With B1, the OD450 turned out to be 0.07 OD.
Regarding B2, the OD450 worked out at 0.06 OD.
On to B3, for which the OD450 turned out to be 0.06 OD.
